This note sets out measurements from patent US20240082398A1, “METHODS OF PREPARING AND EXPANDING TYPE I INNATE LYMPHOID CELLS AND THERAPEUTIC USES THEREOF” (City of Hope, priority 2021, published 2024).

For the assay, the system named is IFN-γ^+ ILC1s. As to the kind of experiment: In vitro stimulation: IFN-γ production by ILC1s. It counts as cell-based, mouse. The note with it: neutralizing antibody 10 μg/ml with LSCs, or IL-7 100 ng/ml; 12 h, IL-12 plus IL-15. The text has this:
ILC1s from human peripheral blood were identified by a surface stain including a live/dead cell viability cell staining kit (Invitrogen) and the following monoclonal antibodies: lineage (FITC-conjugated anti-CD3, anti-CD4, anti-CD8, anti-CD14, anti-CD15, anti-CD16, anti-CD19, anti-CD20, anti-CD33, anti-CD34, anti-CD203c, anti-FceRI), CD56 (FITC, AF700 or BV421 conjugated anti-CD56), CD127 (APC-conjugated anti-CD127), CRTH2 (PE-Cy7-conjugated anti-CRTH2), and c-Kit (PE-conjugated anti-c-Kit). ILC from mice were identified by a surface stain and the following monoclonal antibodies: lineage (PE-Cy7-conjugated anti-CD3 and anti-CD19), NK1.1 (BV510-conjugated anti-NK1.1), NKp46 (BV421, FITC or AF647-conjugated anti-NKp46), CD49b (BUV395 or PE-conjugated anti-CD49b), and CD49a (BV711-conjugated anti-CD49a). Human LSCs were identified by lineage (FITC-conjugate anti-CD2, anti-CD3, anti-CD4, anti-CD8, anti-CD14, anti-CD19, anti-CD20, anti-Mac-1, anti-CD56, and anti-CD235a), CD45 (BV510-conjugated anti-CD45), CD34 (BV510-conjugate anti-CD34), and CD38 (BV605 conjugated anti-CD38). Mouse LSCs were identified by lineage (PE-Cy7 conjugated anti-CD3, anti-CD19, anti-B220, anti-Ly6G/C, anti-Mac-1, anti-CD11b, and anti-Ter119), Sca-1 (PE-CF594 or BV510-conjugate anti-Sca-1), and c-Kit (BV711-conjugated anti-c-Kit). […]

B1: IL-7: recombinant mouse IL-7 (100 ng/ml) (protein)
chain: ECHIKDKEGKAYESVLMISIDELDKMTGTDSNCPNNEPNFFRKHVCDDTKEAAFLNRAARKLKQFLKMNISEEFNVHLLTVSQGTQTLVNCTSKEEKNVKEQKKNDACFLKRLLREIKTCWNKILKGSI
Consider B1, for which the “effect on production of IFN-γ in normal ILC1s” value is reported as “significantly increased”.
